Our source for the inhibition of the PLA2 activity of Bbil-TX (substrate 4-nitro-3-octanoyloxy-benzoic acid) after preincubation of enzyme and inhibitor for 30 min values is paper PMC3591176.

In the test the target is Bbil-TX, basic PLA2 from Bothriopsis bilineata snake venom (Bothriopsis bilineata).

“crotapotin isoform F3 from Crotalus durissus cascavella rattlesnake venom (natural protein)” returned an inhibition of the PLA2 activity of Bbil-TX (substrate 4-nitro-3-octanoyloxy-benzoic acid) after preincubation of enzyme and inhibitor for 30 min at 37°C of 50%.
